# Data taken from the supplement of paper PMC5998384.
# Assays:
# HeLa Kyoto [1] = assay: solubility in G1/S (NP-40 vs SDS abundance) (log2 ratio); higher = more soluble; conditions: cell cycle stage: G1/S
# HeLa Kyoto [2] = assay: melting temperature (median over replicates), in situ; higher = more thermally stable
# HeLa Kyoto [3] = assay: solubility change mitosis vs G1/S (difference of NP-40 vs SDS log2 ratios) (log2 ratio difference); higher = more soluble in mitosis
# HeLa Kyoto [4] = assay: thermal stability score vs G1/S (z-score of summed log2 fold changes over temperatures); higher = more thermally stable than in G1/S
# [5] = cell cycle stage: early G1 (4.5 h after nocodazole release)
# 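For melting temperature (median over replicates), in situ in this document: HeLa Kyoto cells synchronized by double thymidine or nocodazole block, proteins quantified by TMT10plex mass spectrometry, three independent biological replicates.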
# 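For solubility change mitosis vs G1/S (difference of NP-40 vs SDS log2 ratios) in this document: synchronized HeLa Kyoto cells (double thymidine block for G1/S, nocodazole release for mitosis), protein amounts in NP-40 versus SDS lysates quantified by mass spectrometry, three biological replicates.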
# 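For solubility in G1/S (NP-40 vs SDS abundance) in this document: HeLa Kyoto cells arrested at G1/S by double thymidine block, proteins quantified by TMT10plex mass spectrometry in mild NP-40 versus SDS extracts, three biological replicates.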
# 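For thermal stability score vs G1/S (z-score of summed log2 fold changes over temperatures) in this document: synchronized HeLa Kyoto cells, proteins quantified by TMT10plex mass spectrometry, three biological replicates, mitosis taken 0.5 h after nocodazole release, G1/S directly after double thymidine block.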
# Sequence of MARK2 (chain, as listed by the source): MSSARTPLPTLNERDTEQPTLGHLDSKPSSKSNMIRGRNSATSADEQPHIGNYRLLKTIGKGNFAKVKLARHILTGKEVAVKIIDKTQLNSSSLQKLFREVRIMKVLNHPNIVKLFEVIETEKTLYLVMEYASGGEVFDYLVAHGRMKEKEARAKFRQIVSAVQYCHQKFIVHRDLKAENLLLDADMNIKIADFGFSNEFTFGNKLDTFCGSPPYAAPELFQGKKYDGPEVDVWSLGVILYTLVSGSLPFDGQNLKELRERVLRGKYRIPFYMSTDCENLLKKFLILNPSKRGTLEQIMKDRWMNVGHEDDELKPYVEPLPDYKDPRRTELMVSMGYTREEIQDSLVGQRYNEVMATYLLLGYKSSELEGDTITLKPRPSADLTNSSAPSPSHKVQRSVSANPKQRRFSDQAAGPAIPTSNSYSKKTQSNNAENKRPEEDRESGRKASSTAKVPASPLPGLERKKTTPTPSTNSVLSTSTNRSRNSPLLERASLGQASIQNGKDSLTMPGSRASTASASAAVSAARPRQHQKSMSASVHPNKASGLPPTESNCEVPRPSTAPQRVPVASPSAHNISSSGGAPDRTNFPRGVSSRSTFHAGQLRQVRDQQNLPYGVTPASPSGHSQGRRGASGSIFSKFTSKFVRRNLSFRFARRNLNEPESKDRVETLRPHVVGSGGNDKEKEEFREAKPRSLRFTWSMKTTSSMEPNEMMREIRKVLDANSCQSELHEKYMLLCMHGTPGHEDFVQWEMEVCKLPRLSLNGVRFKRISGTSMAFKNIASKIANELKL
Substance,solubility in G1/S (log2) (HeLa Kyoto [1]),melting temperature (HeLa Kyoto [2]; cell cycle stage: G1/S) [°C],solubility change mitosis (log2) (HeLa Kyoto [3]),thermal stability score (HeLa Kyoto [4]; [5]),thermal stability score (HeLa Kyoto [4]; cell cycle stage: mitosis),melting temperature (HeLa Kyoto [2]; cell cycle stage: mitosis) [°C]
MSECGGRGGGSSSSEDAEDEGGGGGGPAGSDCLSSSPTLATASSAGRLRRGLRGAFLMARQRPELLCGAVALGCALLLALKFTCSRAKDVIIPAKPPVSFFSLRSPVLDLFQGQLDYAEYVRRDSEVVLLFFYAPWCGQSIAARAEIEQAASRLSDQVLFVAINCWWNQGKCRKQKHFFYFPVIYLYHRSFGPIEYKGPMSAVYIEKFVRRVMKPLLYIPSQSELLDFLSNYEPGVLGYFEFSGSPQPPGYLTFFTSALHSLKKALESTSSPRALVSFTGEWHLETKIYVLDYLGTVRFGVITNKHLAKLVSLVHSGSVYLHRHFNTSLVFPREVLNYTAENICKWALENQETLFRWLRPHGGKSLLLNNELKKGPALFLFIPFNPLAESHPLIDEITEVALEYNNCHGDQVVERLLQHLRRVDAPVLESLALEVPAQLPDPPTITASPCCNTVVLPQWHSFSRTHNVCELCVNQTSGGMKPSSVSVPQCSFFEMAAALDSFYLKEQTFYHVASDSIECSNFLTSYSPFSYYTACCRTISRGVSGFIDSEQGVFEAPTVAFSSLEKKCEVDAPSSVPHIEENRYLFPEVDMTSTNFTGLSCRTNKTLNIYLLDSNLFWLYAERLGAPSSTQVKEFAAIVDVKEESHYILDPKQALMKLTLESFIQNFSVLYSPLKRHLIGSGSAQFPSQHLITEVTTDTFWEVVLQKQDVLLLYYAPWCGFCPSLNHIFIQLARNLPMDTFTVARIDVSQNDLPWEFMVDRLPTVLFFPCNRKDLSVKYPEDVPITLPNLLRFILHHSDPASSPQNVANSPTKECLQSEAVLQRGHISHLEREIQKLRAEISSLQRAQVQVESQLSSARRDEHRLRQQQRALEEQHSLLHAHSEQLQALYEQKTRELQELARKLQELADASENLLTENTWLKILVATMERKLEGRDGAESLAAQREVHPKQPEPSATPQLPGSSPPPANVSATLVSERNKENRTD [TXNDC11],-0.00943,53.5,-0.134,0.926,2.27,–
MNQKLLKLENLLRFHTIYRQLHSLCQRRALRQWRHGFSSAYPVWTAQLCAWPWPTDVLTGAALSQYRLLVTKKEEGPWKSQLSSTKSKKVVEVWIGMTIEELARAMEKNTDYVYEALLNTDIDIDSLEADSHLDEVWIKEVITKAGMKLKWSKLKQDKVRKNKDAVRRPQADPALLTPRSPVVTIMGHVDHGKTTLLDKFRKTQVAAVETGGITQHIGAFLVSLPSGEKITFLDTPGHAAFSAMRARGAQVTDIVVLVVAADDGVMKQTVESIQHAKDAQVPIILAVNKCDKAEADPEKVKKELLAYDVVCEDYGGDVQAVPVSALTGDNLMALAEATVALAEMLELKADPNGPVEGTVIESFTDKGRGLVTTAIIQRGTLRKGSVLVAGKCWAKVRLMFDENGKTIDEAYPSMPVGITGWRDLPSAGEEILEVESEPRAREVVDWRKYEQEQEKGQEDLKIIEEKRKEHKEAHQKAREKYGHLLWKKRSILRFLERKEQIPLKPKEKRERDSNVLSVIIKGDVDGSVEAILNIIDTYDASHECELELVHFGVGDVSANDVNLAETFDGVIYGFNVNAGNVIQQSAAKKGVKIKLHKIIYRLVEDLQEELSSRLPCAVEEHPVGEASILATFSVTEGKKKVPVAGCRVQKGQLEKQKKFKLTRNGHVIWKGSLTSLKHHKDDISIVKTGMDCGLSLDEDNMEFQVGDRIVCYEEKQIQAKTSWDPGF [MTIF2],-0.146,49.7,-0.0734,-0.325,0.122,49.1
MVSIPEYYEGKNVLLTGATGFLGKVLLEKLLRSCPKVNSVYVLVRQKAGQTPQERVEEVLSGKLFDRLRDENPDFREKIIAINSELTQPKLALSEEDKEVIIDSTNIIFHCAATVRFNENLRDAVQLNVIATRQLILLAQQMKNLEVFMHVSTAYAYCNRKHIDEVVYPPPVDPKKLIDSLEWMDDGLVNDITPKLIGDRPNTYIYTKALAEYVVQQEGAKLNVAIVRPSIVGASWKEPFPGWIDNFNGPSGLFIAAGKGILRTIRASNNALADLVPVDVVVNMSLAAAWYSGVNRPRNIMVYNCTTGSTNPFHWGEVEYHVISTFKRNPLEQAFRRPNVNLTSNHLLYHYWIAVSHKAPAFLYDIYLRMTGRSPRMMKTITRLHKAMVFLEYFTSNSWVWNTENVNMLMNQLNPEDKKTFNIDVRQLHWAEYIENYCLGTKKYVLNEEMSGLPAARKHLNKLRNIRYGFNTILVILIWRIFIARSQMARNIWYFVVSLCYKFLSYFRASSTMRY [FAR1],-0.254,51.7,-0.0436,0.0485,0.111,51.2
MENAHTKTVEEVLGHFGVNESTGLSLEQVKKLKERWGSNELPAEEGKTLLELVIEQFEDLLVRILLLAACISFVLAWFEEGEETITAFVEPFVILLILVANAIVGVWQERNAENAIEALKEYEPEMGKVYRQDRKSVQRIKAKDIVPGDIVEIAVGDKVPADIRLTSIKSTTLRVDQSILTGESVSVIKHTDPVPDPRAVNQDKKNMLFSGTNIAAGKAMGVVVATGVNTEIGKIRDEMVATEQERTPLQQKLDEFGEQLSKVISLICIAVWIINIGHFNDPVHGGSWIRGAIYYFKIAVALAVAAIPEGLPAVITTCLALGTRRMAKKNAIVRSLPSVETLGCTSVICSDKTGTLTTNQMSVCRMFILDRVEGDTCSLNEFTITGSTYAPIGEVHKDDKPVNCHQYDGLVELATICALCNDSALDYNEAKGVYEKVGEATETALTCLVEKMNVFDTELKGLSKIERANACNSVIKQLMKKEFTLEFSRDRKSMSVYCTPNKPSRTSMSKMFVKGAPEGVIDRCTHIRVGSTKVPMTSGVKQKIMSVIREWGSGSDTLRCLALATHDNPLRREEMHLEDSANFIKYETNLTFVGCVGMLDPPRIEVASSVKLCRQAGIRVIMITGDNKGTAVAICRRIGIFGQDEDVTSKAFTGREFDELNPSAQRDACLNARCFARVEPSHKSKIVEFLQSFDEITAMTGDGVNDAPALKKAEIGIAMGSGTAVAKTASEMVLADDNFSTIVAAVEEGRAIYNNMKQFIRYLISSNVGEVVCIFLTAALGFPEALIPVQLLWVNLVTDGLPATALGFNPPDLDIMNKPPRNPKEPLISGWLFFRYLAIGCYVGAATVGAAAWWFIAADGGPRVSFYQLSHFLQCKEDNPDFEGVDCAIFESPYPMTMALSVLVTIEMCNALNSLSENQSLLRMPPWENIWLVGSICLSMSLHFLILYVEPLPLIFQITPLNVTQWLMVLKISLPVILMDETLKFVARNYLEPGKECVQPATKSCSFSACTDGISWPFVLLIMPLVIWVYSTDTNFSDMFWS [ATP2A2],-0.104,51.8,-0.116,3.11,3.97,51.8
MADLANEEKPAIAPPVFVFQKDKGQKSPAEQKNLSDSGEEPRGEAEAPHHGTGHPESAGEHALEPPAPAGASASTPPPPAPEAQLPPFPRELAGRSAGGSSPEGGEDSDREDGNYCPPVKRERTSSLTQFPPSQSEERSSGFRLKPPTLIHGQAPSAGLPSQKPKEQQRSVLRPAVLQAPQPKALSQTVPSSGTNGVSLPADCTGAVPAASPDTAAWRSPSEAADEVCALEEKEPQKNESSNASEEEACEKKDPATQQAFVFGQNLRDRVKLINESVDEADMENAGHPSADTPTATNYFLQYISSSLENSTNSADASSNKFVFGQNMSERVLSPPKLNEVSSDANRENAAAESGSESSSQEATPEKESLAESAAAYTKATARKCLLEKVEVITGEEAESNVLQMQCKLFVFDKTSQSWVERGRGLLRLNDMASTDDGTLQSRLVMRTQGSLRLILNTKLWAQMQIDKASEKSIRITAMDTEDQGVKVFLISASSKDTGQLYAALHHRILALRSRVEQEQEAKMPAPEPGAAPSNEEDDSDDDDVLAPSGATAAGAGDEGDGQTTGST [RANBP3],0.168,55.3,-0.0529,2.19,1.81,56.9
MMAIRELKVCLLGDTGVGKSSIVCRFVQDHFDHNISPTIGASFMTKTVPCGNELHKFLIWDTAGQERFHSLAPMYYRGSAAAVIVYDITKQDSFYTLKKWVKELKEHGPENIVMAIAGNKCDLSDIREVPLKDAKEYAESIGAIVVETSAKNAINIEELFQGISRQIPPLDPHENGNNGTIKVEKPTMQASRRCC [RAB31],-0.166,54.6,0.0123,-1.38,-0.537,53.9
JMJD1C,-0.105,50.2,-0.0573,0.98,0.156,50.7
MAGVGAGPLRAMGRQALLLLALCATGAQGLYFHIGETEKRCFIEEIPDETMVIGNYRTQMWDKQKEVFLPSTPGLGMHVEVKDPDGKVVLSRQYGSEGRFTFTSHTPGDHQICLHSNSTRMALFAGGKLRVHLDIQVGEHANNYPEIAAKDKLTELQLRARQLLDQVEQIQKEQDYQRYREERFRLTSESTNQRVLWWSIAQTVILILTGIWQMRHLKSFFEAKKLV [TMED4],0.179,56,-0.0477,2.03,0.764,56.4
MAEGEDVPPLPTSSGDGWEKDLEEALEAGGCDLETLRNIIQGRPLPADLRAKVWKIALNVAGKGDSLASWDGILDLPEQNTIHKDCLQFIDQLSVPEEKAAELLLDIESVITFYCKSRNIKYSTSLSWIHLLKPLVHLQLPRSDLYNCFYAIMNKYIPRDCSQKGRPFHLFRLLIQYHEPELCSYLDTKKITPDSYALNWLGSLFACYCSTEVTQAIWDGYLQQADPFFIYFLMLIILVNAKEVILTQESDSKEEVIKFLENTPSSLNIEDIEDLFSLAQYYCSKTPASFRKDNHHLFGSTLLGIKDDDADLSQALCLAISVSEILQANQLQGEGVRFFVVDCRPAEQYNAGHLSTAFHLDSDLMLQNPSEFAQSVKSLLEAQKQSIESGSIAGGEHLCFMGSGREEEDMYMNMVLAHFLQKNKEYVSIASGGFMALQQHLADINVDGPENGYGHWIASTSGSRSSINSVDGESPNGSSDRGMKSLVNKMTVALKTKSVNVREKVISFIENTSTPVDRMSFNLPWPDRSCTERHVSSSDRVGKPYRGVKPVFSIGDEEEYDTDEIDSSSMSDDDRKEVVNIQTWINKPDVKHHFPCKEVKESGHMFPSHLLVTATHMYCLREIVSRKGLAYIQSRQALNSVVKITSKKKHPELITFKYGNSSASGIEILAIERYLIPNAGDATKAIKQQIMKVLDALES [TBC1D23],0.0926,50.5,0.0232,0.43,0.147,50
MASGQGPGPPRQECGEPALPSASEEQVAQDTEEVFRSYVFYRHQQEQEAEGVAAPADPEMVTLPLQPSSTMGQVGRQLAIIGDDINRRYDSEFQTMLQHLQPTAENAYEYFTKIATSLFESGINWGRVVALLGFGYRLALHVYQHGLTGFLGQVTRFVVDFMLHHCIARWIAQRGGWVAALNLGNGPILNVLVVLGVVLLGQFVVRRFFKS [BAK1],-0.215,–,-0.0672,-0.0676,-0.207,55.7
MSGGLLKALRSDSYVELSQYRDQHFRGDNEEQEKLLKKSCTLYVGNLSFYTTEEQIYELFSKSGDIKKIIMGLDKMKKTACGFCFVEYYSRADAENAMRYINGTRLDDRIIRTDWDAGFKEGRQYGRGRSGGQVRDEYRQDYDAGRGGYGKLAQNQ [NCBP2],-0.118,51.4,0.26,-0.145,-1.78,51.8
MARK2,-0.0826,49.6,0.0431,0.513,0.569,48.7
